Test results taken from patent US20100120675A1 (CONSEJO SUPERIOR DE INVESTIGACIONES CIENTIFICAS, published 2010).

Experiments:
[1] = target: T1, UDG enzyme of B. subtilis (Bacillus subtilis, UniProt P39615 1-225); assay: affinity chromatography of B. subtilis 110NA[pPR53.p56FLAG] lysate on anti-FLAG M2 column, elution with FLAG peptide, SDS gel, peptide mass fingerprinting
T1 construct: Endogenous enzyme of the B. subtilis 110NA extract, identified by peptide mass fingerprinting (MASCOT); also called UDG of B. subtilis; protein D
T1 sequence: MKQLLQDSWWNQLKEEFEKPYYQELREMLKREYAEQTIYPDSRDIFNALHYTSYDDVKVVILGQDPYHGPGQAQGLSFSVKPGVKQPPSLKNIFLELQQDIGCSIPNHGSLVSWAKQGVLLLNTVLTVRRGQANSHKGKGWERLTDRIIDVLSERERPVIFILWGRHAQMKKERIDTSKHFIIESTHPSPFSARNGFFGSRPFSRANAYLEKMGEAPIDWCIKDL

[2] = target: T2, UDG enzyme of E. coli (E. coli, UniProt P12295 2-229); assay: native polyacrylamide gel (16%) of p56 (2 µg) incubated with E. coli UDG (0.2 µg); Western blot and peptide mass fingerprinting of the band
T2 construct: Commercial enzyme; also called UDG of E. coli (New England Biolabs)
T2 sequence: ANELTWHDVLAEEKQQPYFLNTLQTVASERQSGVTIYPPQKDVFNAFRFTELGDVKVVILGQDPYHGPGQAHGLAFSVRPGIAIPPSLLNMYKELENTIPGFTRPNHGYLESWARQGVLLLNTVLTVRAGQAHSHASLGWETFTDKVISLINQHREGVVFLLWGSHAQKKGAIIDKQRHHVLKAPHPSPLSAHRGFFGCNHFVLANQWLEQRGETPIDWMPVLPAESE

B1: protein p56FLAG (other)
chain: MVQNDFVDSYDVTMLLQDDDGKQYYEYHKGLSLSDFEVLYGNTADEIIKLRLDKVLDYKDDDDK
notes: Produced constitutively in B. subtilis 110NA[pPR53.p56FLAG]; Captured from the cell lysate on an anti-FLAG M2 column
Does B1 bind [1]?
Result: binds

B2: protein p56 of the phi29 (φ29) bacteriophage (other)
chain: MVQNDFVDSYDVTMLLQDDDGKQYYEYHKGLSLSDFEVLYGNTADEIIKLRLDKVL
notes: Untagged, purified as in section 1.4; also called protein of the invention
Does B2 bind [2]?
Result: binds
